Legend:
[1] = target: E2 ubiquitin-conjugating enzyme Ubch8, O14933
[2] = target: E2 ubiquitin-conjugating enzyme UbchD2, P62837
E2 ubiquitin-conjugating enzyme UbchD2, P62837, sequence (P62837 whole entry, looked up): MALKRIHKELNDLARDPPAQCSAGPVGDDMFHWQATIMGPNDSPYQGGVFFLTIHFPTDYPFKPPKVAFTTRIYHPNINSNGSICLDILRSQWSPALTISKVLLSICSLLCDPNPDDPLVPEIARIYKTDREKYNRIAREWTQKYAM

E2 ubiquitin-conjugating enzyme Ubch8, O14933, sequence (O14933 whole entry): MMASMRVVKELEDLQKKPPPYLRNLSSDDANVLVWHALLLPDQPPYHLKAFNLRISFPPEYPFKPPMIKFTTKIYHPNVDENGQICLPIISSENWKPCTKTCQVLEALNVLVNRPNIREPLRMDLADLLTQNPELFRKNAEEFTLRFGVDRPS

B1: GST-Chfr (glutathione S-transferase fused to the N-terminus of full-length human Chfr) (protein)
chain: MERPEEGKQSPPPQPWGRLLRLGAEEGEPHVLLRKREWTIGRRRGCDLSFPSNKLVSGDHCRIVVDEKSGQVTLEDTSTSGTVINKLKVVKKQTCPLQTGDVIYLVYRKNEPEHNVAYLYESLSEKQGMTQESFEANKENVFHGTKDTSGAGAGRGADPRVPPSSPATQVCFEEPQPSTSTSDLFPTASASSTEPSPAGRERSSSCGSGGGGISPKGSGPSVASDEVSSFASALPDRKTASFSSLEPQDQEDLEPVKKKMRGDGDLDLNGQLLVAQPRRNAQTVHEDVRAAAGKPDKMEETLTCIICQDLLHDCVSLQPCMHTFCAACYSGWMERSSLCPTCRCPVERICKNHILNNLVEAYLIQHPDKSRSEEDVQSMDARNKITQDMLQPKVRRSFSDEEGSSEDLLELSDVDSESSDISQPYVVCRQCPEYRRQAAQPPHCPAPEGEPGAPQALGDAPSTSVSLTTAVQDYVCPLQGSHALCTCCFQPMPDRRAEREQDPRVAPQQCAVCLQPFCHLYWGCTRTGCYGCLAPFCELNLGDKCLDGVLNNNSYESDILKNYLATRGLTWKNMLTESLVALQRGVFLLSDYRVTGDTVLCYCCGLRSFRELTYQYRQNIPASELPVAVTSRPDCYWGRNCRTQVKAHHAMKFNHICEQTRFKN
ubiquitin-protein ligase activity in vitro (ubiquitination of GST-Chfr, anti-ubiquitin immunoblot) [1]: did not function in this assay
ubiquitin-protein ligase activity in vitro (ubiquitination of GST-Chfr, anti-ubiquitin immunoblot) [2]: supported the ubiquitin-protein ligase activity of Chfr
